Values of other authors, collected in paper PMC6143667.

Target: PKA catalytic subunit (UniProt P17612)

Question: For “PKA regulatory subunit RII (from UniProt P31323)”, which Kd is on record?
Answer: 0.1 nM
